Measured values taken from patent US5681819.

What was measured:
[1] = target: receptor on the rat intestine surface that binds the C-tail of BAL (CT-receptors)
[2] = target: receptor on the mouse small intestine surface that binds the C-tail of BAL (CT receptor); assay: 125I-labelled protein retained in ligated mouse small intestine segments after washing; mean of 3 experiments
[3] = target: receptor on the rat intestine surface that binds the C-tail of BAL (CT-receptors); remark: listed apart in the source
[4] = target: receptor on the rat intestine surface that binds the C-tail of BAL (CT-receptors); remark: listed apart in the source

## rat endogenous intestinal BAL (from UniProt P07882) (enzyme)
[1]
  cholesterol uptake of rat intestine after removal of bound BAL with EGTA: 16 % of control

B1: native human milk bile salt-activated lipase (enzyme)
chain: AKLGAVYTEGGFVEGVNKKLGLLGDSVDIFKGIPFAAPTKALENPQPHPGWQGTLKAKNFKKRCLQATITQDSTYGDEDCLYLNIWVPQGRKQVSRDLPVMIWIYGGAFLMGSGHGANFLNNYLYDGEEIATRGNVIVVTFNYRVGPLGFLSTGDANLPGNYGLRDQHMAIAWVKRNIAAFGGDPNNITLFGESAGGASVSLQTLSPYNKGLIRRAISQSGVALSPWVIQKNPLFWAKKVAEKVGCPVGDAARMAQCLKVTDPRALTLAYKVPLAGLEYPMLHYVGFVPVIDGDFIPADPINLYANAADIDYIAGTNNMDGHIFASIDMPAINKGNKKVTEEDFYKLVSEFTITKGLRGAKTTFDVYTESWAQDPSQENKKKTVVDFETDVLFLVPTEIALAQHRANAKSAKTYAYLFSHPSRMPVYPKWVGADHADDIQYVFGKPFATPTGYRPQDRTVSKAMIAYWTNFAKTGDPNMGDSAVPTHWEPYTTENSGYLEITKKMGSSSMKRSLRTNFLRYWTLTYLALPTVTDQEATPVPPTGDSEATPVPPTGDSETAPVPPTGDSGAPPVPPTGDSGAPPVPPTGDSGAPPVPPTGDSGAPPVPPTGDSGAPPVPPTGDSGAPPVPPTGDSGAPPVPPTGDAGPPPVPPTGDSGAPPVPPTGDSGAPPVTPTGDSETAPVPPTGDSGAPPVPPTGDSEAAPVPPTDDSKEAQMPAVIRF
modifications: O-linked oligosaccharides in the C-tail, primarily on threonine; 125I-labelled in the mouse intestine binding experiment
[2]
  Bound: 384 ng/cm
[3]
  Cholesterol Uptake: 14.4 nmol/g/h

B2: recombinant truncated form of bile salt-activated lipase (T-BAL, residues 1-538 lacking the carboxy terminal end) (enzyme)
chain: AKLGAVYTEGGFVEGVNKKLGLLGDSVDIFKGIPFAAPTKALENPQPHPGWQGTLKAKNFKKRCLQATITQDSTYGDEDCLYLNIWVPQGRKQVSRDLPVMIWIYGGAFLMGSGHGANFLNNYLYDGEEIATRGNVIVVTFNYRVGPLGFLSTGDANLPGNYGLRDQHMAIAWVKRNIAAFGGDPNNITLFGESAGGASVSLQTLSPYNKGLIRRAISQSGVALSPWVIQKNPLFWAKKVAEKVGCPVGDAARMAQCLKVTDPRALTLAYKVPLAGLEYPMLHYVGFVPVIDGDFIPADPINLYANAADIDYIAGTNNMDGHIFASIDMPAINKGNKKVTEEDFYKLVSEFTITKGLRGAKTTFDVYTESWAQDPSQENKKKTVVDFETDVLFLVPTEIALAQHRANAKSAKTYAYLFSHPSRMPVYPKWVGADHADDIQYVFGKPFATPTGYRPQDRTVSKAMIAYWTNFAKTGDPNMGDSAVPTHWEPYTTENSGYLEITKKMGSSSMKRSLRTNFLRYWTLTYLALPTVTDQEAT
modifications: not glycosylated (expressed in E. coli); 125I-labelled in the mouse intestine binding experiment
[2]
  Bound: 33 ng/cm
[3]
  Cholesterol Uptake: 7.32 nmol/g/h

B3: isolated C-tail of human milk BAL (protein)
chain: ALPTVTDQEATPVPPTGDSEATPVPPTGDSETAPVPPTGDSGAPPVPPTGDSGAPPVPPTGDSGAPPVPPTGDSGAPPVPPTGDSGAPPVPPTGDSGAPPVPPTGDSGAPPVPPTGDAGPPPVPPTGDSGAPPVPPTGDSGAPPVTPTGDSETAPVPPTGDSGAPPVPPTGDSEAAPVPPTDDSK
modifications: about 8 to 10 O-linked oligosaccharides per C-tail molecule, most if not all on threonine (fucose, galactose, galactosamine, glucosamine)
[4]
  cholesterol uptake of rat intestine segments from 3H cholesterol oleate: 10 % of control
